Test: soluble on expression in E. coli; label from the status in PepcDB or PDB records

Row | Sequence | soluble on expression in E. coli
1 | MSLKILDCTLRDGGYYTNWDFNSKIVDAYILAMNELPIDYLEVGYRNKPSKEYMGKFGYTPVSVLKHLRNISTKKIAIMLNEKNTTPEDLNHLLLPIIGLVDMIRIAIDPQNIDRAIVLAKAIKTMGFEVGFNVMYMSKWAEMNGFLSKLKAIDKIADLFCMVDSFGGITPKEVKNLLKEVRKYTHVPVGFHGHDNLQLGLINSITAIDDGIDFIDATITGMGRGAGNLKMELLLTYLNKHHGLNVDFNVLGNIITTFTPLLEKYQWGTNLPYMLSGANNIPQKEVMDWVTNRVYSFNSIIRALDNRKNKMEDNAKYPLLNIKNKFDRVVIIGGGFNAIEHKEAIKSFIETHTNTAIIFATARYAREYLDVNAPHFYCLVGNEGHRLTHNINPQNLSGICVLPPYPRPMGTEVPEYAKNVTFELENITFIDQYKDSVTTIALQLAILLTDQDIYLVGYDGYPGNVLSEKEMALTNENRTIFATYTTISGKILKSLTPSIYKEIEVVSVYQFEGHHHHHH | soluble
2 | MGSDKIHHHHHHMNGKLQSSDVKNETPYNIPLLINENVISSGISLISLWHTYADEHYRVIWPRDKKKPLIANSWVAVYTVQGCGKILLKNGEQITLHSNCIIFLKPMDIHSYHCEGLVWEQYWMEFTPTSMMDIPVGQQSVIYNGEIYNQELTEVAELITSPEAIKNNLAVAFLTKIIYQWICLMSADGKKDPQRRQIEKLIATLHASLQQRWSVADMAATIPCSEAWLRRLFLRYTGKTPKEYYLDARLDLALSLLKQQGNSVGEVADTLNFFDSFHFSKAFKHKFGYAPSAVLKNTDQHPTDASPHN | not soluble
3 | MASPRELTQNPLKKIFMPYSNGRPALHASQRGVCMTNCPTLIVMVGLPARGKTYISKKLTRYLNFIGVPTREFNVGQYRRDMVKTYKSFEFFLPDNEEGLKIRKQCALAALNDVRKFLSEEGGHVAVFDATNTTRERRAMIFNFGEQNGYKTFFVESICVDPEVIAANIVQVKLGSPDYVNRDSDEATEDFMRRIECYENSYESLDEEQDRDLSYIKIMDVGQSYVVNRVADHIQSRIVYYLMNIHVTPRSIYLCRAGESELNLKGRIGGDPGLSPRGREFSKHLAQFISDQNIKDLKVFTSQMKRTIQTAEALSVPYEQFKVLNEIDAGVCEEMTYEEIQDHYPLEFALRDQDKYRYRYPKGESYEDLVQRLEPVIMELERQENVLVICHQAVMRCLLAYFLDKAAEELPYLKCPLHTVLKLTPVAYGCKVESIFLNVAAVNTHRDRPQNVDISRPSEEALVTVPAHQ | soluble
4 | MGSDKIHHHHHHMENTIYLSSAYLAPVEYYTKLFACEKAYVEQYDNYVKQTYRNRCVIAAADGPLALTIPTEKSGTPKCLMKDVRISDHGNWRHIHWNALVAAYRNSPFFEYYADDFHVFYEKKYAFLWDYNQEICSLVCDLIDIHPHMEGTTEYCMEFVPGEVDFRETIHPKRDWREADADFCPKPYYQVFDAKYGFLPNLSIADLLFNMGPESLIVLRDSVKGINHKE | not soluble
5 | MDRTIYDNYVKILRKELVPALGCTEPIALAYASAKAREVLGEFPEHMTVWCSGNIIKNVKGVKVPNSGGMKGVEAAAVLGLAGGDPSQALEVLEAVTQTDIKRTKELLRESFCDCCLKEGVANLYIEVQVVNGENEATVIIEQEHTNITRIEKNGKIVYAHKKEVSGEEIEVDKSLLNLADILVFAQEVDLNEVRDVLARQIRYNSRIAKEGLEHEWGAQVGRVIAEEFGTTVQWKAVASAAAGSDARMSGCSLPVIINSGSGNQGMTCSLPVIEYGKELKKSEEEIYRALCVSNLVALNQKRYIGSLSAYCGAVCAAAGAGAGITYLCGGNLEQIQNTVVNTIADAGGIVCDGAKPSCAAKIATSLQAAILSHKMAMRGLVFGSGEGLVMDCPEDTIKAVGYVGRAGMKQTDVEILNLMIGKTKIEDIEK | not soluble
6 | SNAMLNIVLFEPEIPPNTGNIIRLCANTGCQLHLIKPLGFTWDDKRLRRAGLDYHEFADIKHHHDYQAFLDSEKLDSTQPARLFALTTKGTPAHSAVSYQANDYLLFGPETRGLPAYILDALPAQQKIRIPMQADSRSMNLSNAVSVVVYEAWRQLGYPGALLKE | soluble
7 | MGSDKIHHHHHHKDAAYPRAEAQTLDLAQKAIAIRSVRGEGNRTIDVANLFRDALLKGGWQVGDIEVTPVDDTAYIIATWKGSDPSLKPVVISGHMDVVEAKREDWERDPFVPVVENGILYGRGASDMKFDGALALSTLIELRRQGFKPKRTIVIEFSGDEETTMKTSAIIAEKLKNAELVINVDGGGGTLDEATGKPLYWTWQGAEKTYADYRLEVTNPGGHSSAPRPDNAIVQLSQALVKVGAYRFKAEQNDITRGYFEKAAPFTDRPEIAAAMRAFAANPADEKALATLRADPSMVGKVGTTCVPTMLGGGHAENALPQRAFANINCRIFPGHTKEAIMAELAQVVGDPAVKISDVTEGSVASPASPLRPDLMKAVTRAMTKAYPKVPLIPSQASGASDSMWFRALGVPSYGLSPSFSKDSEDFSHGLNERTRLSNIRPGITYYLTLITDLTK | not soluble
8 | MKKTLILGATPETNRYAYLAAERLKSHGHEFIPVGRKKGEVLGKTIINERPVIEGVDTVTLYINPQNQLSEYNYILSLKPKRVIFNPGTENEELEEILSENGIEPVIGCTLVMLSAGT | not soluble
9 | MSLKYEGSISINATKDQILKLLDNPDQVAQCFPGIKSFSKEGEEYKVVGVTGIGFIKGEYRANVRFEKIDDNKRKIIAKGTGMNSNVDIDAIAEALDGKINYSADVKVAGVLASVGARLMGSAVEKIINDLFNCIKERVIKEGHHHHHH | soluble
10 | MIKVDMTVDAKGLSCPMPIVRTKKAINELQPGQVLEVQATDKGSKADIKAWAESTGHQYLGTIEENGVLKHYIRKSAEHETRKETTFPHVVSNEELQEKLHDPDSFVLDVREPAEYAFGHIPGAVSIPLGELENRMAELPKDKTIYVVCRTGTRSDLAAQKLAEKGFDRVRNVIPGMSQWNGPLDSAQS | soluble
11 | MQSWYLLYCKRGQLQRAQEHLERQAVSCLTPMITLEKMVRGKRTSVSEPLFPNYLFVEFDPEVIHTTTINATRGVSHFVRFGAHPAIVPSSVIHQLSIYKPEGVVDPETPYPGDSVIITEGAFEGLKAIFTEPDGETRSMLLLNLLNKEVKQSVKNTGFRKI | not soluble
12 | MESEMSDPQPLQEERYDMSGARLALTLCVTKAREGSEVDMEALERMFRYLKFESTMKRDPTAQQFLEELDEFQQTIDNWEEPVSCAFVVLMAHGEEGLLKGEDEKMVRLEDLFEVLNNKNCKALRGKPKVYIIQACRGEHRDPGEELRGNEELGGDEELGGDEVAVLKNNPQSIPTYTDTLHIYSTVEGYLSYRHDEKGSGFIQTLTDVFIHKKGSILELTEEITRLMANTEVMQEGKPRKVNPEVQSTLRKKLYLQ | soluble
13 | MSLNGITKYVEKVKGLLFSSVQSQKRIEFSNNDEKVMLSNVPLIQQLPELDRGCEVTSLAMMLQYAGVSVDKMKLANEIKKVNFMEDGVRGNPNEGFVGNIYTFSESGYGVYHGPLFQLAKKYLPNKAVDLTGKSIEEIYKSVKAGHPVVMITNATYAPLDEDEFTTWETNSGDVSITYNEHCVVLVGYDKESVYIRDPLDDSLDVKVPREKFEQAWVQMGSQAISYVNKSKEGHHHHHH | soluble
14 | MKIGIFTDCYYPQINGVVTSTMNLQKELEKLNHEVYIITTTFPNFKDEDEKHIIRIPSIPFFKWSEFRIGLFLKHTKAYNKVKALNFDIVHTQTEFSMGNFGTFIAKDLNIPCIHTYHTVYEEYTHYISNFGKSPLKKVVRKLSKRYIAHFSGVIAPTEKTRDLLISYGVKNKIYVVPTGINLEKFKKDIPDAETNSLLKSFNIKKDSFKLIFLGRISKEKNIETLINIMPKIVSENNNIQLIIVGDGPDRLELEERVRYLDLQDNVIFTNRIPNDKVPIYYKAADLFISPSKTETQGLTILEAMAAGVPVLVYDDTNIKGLVLHKKTGLLFKENDELLDNIKFALNNKEEIQSYAKEAFKIAEDFSSANFAKKVERIYKELINQ | not soluble
15 | LKPHIAVAISGSIYNEAVIKEAFHIAQKEHAKFTAIYIDVFEKNRQYKDSQKQVHQHLMLAKSLGAKVKVVYSQTVALGLDEWCKNQDVTKLIIGQHIRNKWRDFFNTPLIDHLMSFEHS | not soluble
16 | DADPTFDFIGYLETLPQTSGMYMGNASIIPRNYRKYLYHAYLAYMEANGYRNVLSLKMFGLGLPVMLKEYGLNYEKRHTKQGIQTNLTLKEESYGDWLPK | soluble
17 | MLVLYLVFKKFLFKPVMKVINAREDMIKQQFDDAKKSQEEADALKASYDEKLESAKTEADEIIVNARNRAQEEHEAALEKTRKETEVMLEKAKADIATEKEKATEAAQADIARLALIAARKIVKTGDAHDAGSSK | not soluble

From the DeepSol protein solubility set
